Assay results reported in article PMC13016609, “UV irradiation alters TFAM binding specificity and compaction of DNA”.

Assays:
[1] = molecular target: T1, TFAM (no MTS) (Homo sapiens, UniProt Q00059 43-246); assay: fluorescence anisotropy; +UVC; Hill n 2.18±0.14; FP: 25 mM HEPES, 10 mM Mg(OAc)2, 25 mM NaOAc, 75 mM KOAc, pH 7.5, 1 nM DNA, TFAM 0-15 nM diluted on ice (read temperature not stated); AFM oligos: on ice, 2 min; conditions: protein: recombinant; label: 5' 6-FAM on strand 1; blunt
T1 sequence: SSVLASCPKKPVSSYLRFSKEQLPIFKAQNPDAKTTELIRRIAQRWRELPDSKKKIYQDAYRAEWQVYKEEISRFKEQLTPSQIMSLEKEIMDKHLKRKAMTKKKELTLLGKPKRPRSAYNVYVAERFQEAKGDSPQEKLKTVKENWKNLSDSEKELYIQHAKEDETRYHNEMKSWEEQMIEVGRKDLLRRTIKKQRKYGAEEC

[2] = molecular target: T1, TFAM (no MTS); assay: fluorescence anisotropy; Hill n 2.15±0.24; FP: 25 mM HEPES, 10 mM Mg(OAc)2, 25 mM NaOAc, 75 mM KOAc, pH 7.5, 1 nM DNA, TFAM 0-15 nM diluted on ice (read temperature not stated); AFM oligos: on ice, 2 min; conditions: protein: recombinant; label: 5' 6-FAM on strand 1; blunt
[3] = molecular target: T1, TFAM (no MTS); assay: fluorescence anisotropy; +UVC; Hill n 1.81±0.05; FP: 25 mM HEPES, 10 mM Mg(OAc)2, 25 mM NaOAc, 75 mM KOAc, pH 7.5, 1 nM DNA, TFAM 0-15 nM diluted on ice (read temperature not stated); AFM oligos: on ice, 2 min; conditions: protein: recombinant; label: 5' 6-FAM on strand 1; blunt
[4] = molecular target: T1, TFAM (no MTS); assay: fluorescence anisotropy; Hill n 2.64±0.22; FP: 25 mM HEPES, 10 mM Mg(OAc)2, 25 mM NaOAc, 75 mM KOAc, pH 7.5, 1 nM DNA, TFAM 0-15 nM diluted on ice (read temperature not stated); AFM oligos: on ice, 2 min; conditions: protein: recombinant; label: 5' 6-FAM on strand 1; blunt
[5] = molecular target: T1, TFAM (no MTS); assay: fluorescence anisotropy; Hill n 3.09±0.11; FP: 25 mM HEPES, 10 mM Mg(OAc)2, 25 mM NaOAc, 75 mM KOAc, pH 7.5, 1 nM DNA, TFAM 0-15 nM diluted on ice (read temperature not stated); AFM oligos: on ice, 2 min; conditions: protein: recombinant; label: 5' 6-FAM on strand 1; blunt
[6] = molecular target: T1, TFAM (no MTS); assay: fluorescence anisotropy; +UVC; Hill n 4.38±0.33; FP: 25 mM HEPES, 10 mM Mg(OAc)2, 25 mM NaOAc, 75 mM KOAc, pH 7.5, 1 nM DNA, TFAM 0-15 nM diluted on ice (read temperature not stated); AFM oligos: on ice, 2 min; conditions: protein: recombinant; label: 5' 6-FAM on strand 1; blunt
[7] = molecular target: T1, TFAM (no MTS); assay: fluorescence anisotropy; Hill n 3.85±0.49; FP: 25 mM HEPES, 10 mM Mg(OAc)2, 25 mM NaOAc, 75 mM KOAc, pH 7.5, 1 nM DNA, TFAM 0-15 nM diluted on ice (read temperature not stated); AFM oligos: on ice, 2 min; conditions: protein: recombinant; label: 5' 6-FAM on strand 1 (FP); blunt
[8] = molecular target: T1, TFAM (no MTS); assay: fluorescence anisotropy; +UVC; Hill n 2.94±0.40; FP: 25 mM HEPES, 10 mM Mg(OAc)2, 25 mM NaOAc, 75 mM KOAc, pH 7.5, 1 nM DNA, TFAM 0-15 nM diluted on ice (read temperature not stated); AFM oligos: on ice, 2 min; conditions: protein: recombinant; label: 5' 6-FAM on strand 1; blunt
[9] = molecular target: T1, TFAM (no MTS); assay: fluorescence anisotropy; +UVC; Hill n 2.61±0.25; FP: 25 mM HEPES, 10 mM Mg(OAc)2, 25 mM NaOAc, 75 mM KOAc, pH 7.5, 1 nM DNA, TFAM 0-15 nM diluted on ice (read temperature not stated); AFM oligos: on ice, 2 min; conditions: protein: recombinant; label: 5' 6-FAM on strand 1; blunt
[10] = molecular target: T1, TFAM (no MTS); assay: fluorescence anisotropy; Hill n 2.63±0.22; FP: 25 mM HEPES, 10 mM Mg(OAc)2, 25 mM NaOAc, 75 mM KOAc, pH 7.5, 1 nM DNA, TFAM 0-15 nM diluted on ice (read temperature not stated); AFM oligos: on ice, 2 min; conditions: protein: recombinant; label: 5' 6-FAM on strand 1; blunt

B1: COX2_229 +UVC (dsDNA)
DNA 1: GCCCCCATTCGTATAATAATTACATCACAAGAC
DNA 2: GTCTTGTGATGTAATTATTATACGAATGGGGGC
modifications: UVC 1500 J/m2 photolesions (positions undefined)
Kd [1]: 4.87 ± 0.35 nM

B2: TRNT_10 (dsDNA)
DNA 1: CTTGTAGTATAAACTAATACACCAGTCTTGTAA
DNA 2: TTACAAGACTGGTGTATTAGTTTATACTACAAG
Kd [2]: 4.24 ± 0.12 nM

B3: TRNT_10 +UVC (dsDNA)
DNA 1: CTTGTAGTATAAACTAATACACCAGTCTTGTAA
DNA 2: TTACAAGACTGGTGTATTAGTTTATACTACAAG
modifications: UVC 1500 J/m2 photolesions (positions undefined)
Kd [3]: 7.79 ± 0.8 nM

B4: ND2_401 (dsDNA)
DNA 1: CAAATGGGCCATTATCGAAGAATTCACAAAAAA
DNA 2: TTTTTTGTGAATTCTTCGATAATGGCCCATTTG
Kd [4]: 4.36 ± 0.24 nM

B5: ND1_353 40mer (dsDNA)
DNA 1: CACAAACATTATTATAATAAACACCCTCACCACTACAATC
DNA 2: GATTGTAGTGGTGAGGGTGTTTATTATAATAATGTTTGTG
Kd [5]: 5.69 ± 0.15 nM

B6: ND1_353 40mer +UVC (dsDNA)
DNA 1: CACAAACATTATTATAATAAACACCCTCACCACTACAATC
DNA 2: GATTGTAGTGGTGAGGGTGTTTATTATAATAATGTTTGTG
modifications: UVC 1500 J/m2 photolesions (positions undefined)
Kd [6]: 7.25 ± 0.39 nM

B7: ND1_353 (dsDNA)
DNA 1: ATTATTATAATAAACACCCTCACCACTACAATC
DNA 2: GATTGTAGTGGTGAGGGTGTTTATTATAATAAT
Kd [7]: 7.56 ± 0.34 nM

B8: ND1_353 +UVC (dsDNA)
DNA 1: ATTATTATAATAAACACCCTCACCACTACAATC
DNA 2: GATTGTAGTGGTGAGGGTGTTTATTATAATAAT
modifications: UVC 1500 J/m2 photolesions (positions undefined)
Kd [8]: 7.66 ± 0.88 nM

B9: ND2_401 +UVC (dsDNA)
DNA 1: CAAATGGGCCATTATCGAAGAATTCACAAAAAA
DNA 2: TTTTTTGTGAATTCTTCGATAATGGCCCATTTG
modifications: UVC 1500 J/m2 photolesions (positions undefined)
Kd [9]: 6.24 ± 0.15 nM

B10: ND3_92 (dsDNA)
DNA 1: TTAGTAGCTATTACCTTCTTATTATTTGATCTA
DNA 2: TAGATCAAATAATAAGAAGGTAATAGCTACTAA
Kd [10]: 4.53 ± 0.13 nM
